The source of these data is a protein production outcome set (Wang et al. 2014).

This data set in a line: label from the status in PepcDB records.
Take “MKIMTKTLNRTTLGLALGLASSQLLAAGFALNEQSISGMGTGFAGRSSSADDASTVFGNPAGMSRIKREQISVGAAAVIAKTDIDNGRGTFGGSNDGDMVPVVGVPMGYYVKPIDDHWAFGLGVYVPFGLVTDYEKGFAGRYWGDKSHVQIVTFQPTVSYAFNDKVSIGFGPTINRIDGELTSATLNAATPGRNDGKVKIEGDDTAIGFNAGILVQATDTTRLGLTYHSKVDYKLKGKTKIEGSGFGPFGGQKYDASLDISTPESVDFSITQQLDENWTVYAGSTWTRWSRLQDITVNNDGVPALLGGSAGPIGTITEEQNWHDTWAHAIGASYKVNKEWTLRTGFSVDQSPTNNVNRSPRIPTGDRKIISFGAGWSPTDDLTIDVAYSYLREDETKIRDSSATKGSYSADYRNTAHGLGTSVTYRF”: the protein production entry was “failed”.
In the case of “MKISEVLVKVGDGVHTLLLDRPIVRDGRKFDAPLLWMVVLMTAFGLLMIYSASVYLASKEGGDQFFYLTRQAGFVVAGLIASGFLWFLCRMRTWRRLVPWIFALSGLLLVAVLIAGREINGATRWIPLGPLNFQPTELFKLAVILYLASLFTRREEVLRSMESLGWQSIWRGTANLIMSATNPQARRETLEMYGRFRAIILPIMLVAFGLVLIMVQPDFGSFVVITVITVGMLFLAGLPWKYFFVLVGSVLGGMVLMITAAPYRVQRVVAFLDPWKDPQGAGYQLTHSLMAIGRGEWFGMGLGASLSKRGFLPEAHTDFIFAIIAEEFGFFGMCVLIFCYGWLVVRAFSIGKQSRDLGLTFNAYIASGIGIWIGIQSFFNIGVNIGALPTKGLTLPLMSYGGSSVFFMLISMMLLLRIDYENRQKMRGYRVE”, the protein production result is given as “failed”.
Take “MKISLVTVTFNSAKTLCDTIHSVLSQSYTNIEYIIVDGLSNDETVTLIKEYEPLFQGRLKWISEKDKGLYDAMNKGIRMSTGDIVGIINSDDFYHRGDVLEKVAESFEAGETEAIYGDVRFVNPDNLDRTVRYYSSKRFVPSLFRFGFMPAHPTFFTYRKYFDQFGYYKTNYKIAADYELLVRFLYVHRLKSKYLPLDFMKMRTGGASTASIKSNILLNKEIVRACKENGIWTCYPLLLLKYLVKVFELIFIKKLEHHHHHH”: the protein production result is “not failed”.
With “MKISPSLMCMDLLKFKEQIEFIDSHADYFHIDIMDGHFVPNLTLSPFFVSQVKKLATKPLDCHLMVTRPQDYIAQLARAGADFITLHPETINGQAFRLIDEIRRHDMKVGLILNPETPVEAMKYYIHKADKITVMTVDPGFAGQPFIPEMLDKLAELKAWREREGLEYEIEVDGSCNQATYEKLMAAGADVFIVGTSGLFNHAENIDEAWRIMTAQILAAKSEVQPHAKTA” the entry was “failed”.
Regarding “MKITRQIFIYFSFLMAVALFFSCKTTEKAVKSPVTEETKKAEKTGKKSPREEFNDKLTHLSKKGDLEGILKLIDESDPELTKDFKIQYLKLSILISMRKTKEAETFADELSKAYPNNTEILYAQVMLAQAENNTQKKNQYLKKILAINPKDSRALTEQGLDFYSAKKYNDARRKFIEAYKADPKCTEALIGLGRINYLEGKLDQAEANLTAVLEQEPNNSTALAELARIKSETNRMYQALQDINRAAELEPNNPSHWNDIGSYNLTIGRKEEAKKAYDKVIELTPDSYVAYIYRAGINDELGYKEDALADYIKVCNLYPPYYFALEGAGILLWEKGDWLNAGTAFLKALNKAPGSYQYALLYAISLYKQNKKPDAKKFMQNYLKSINRTEKENEYFLCRLFIDFAGDSELINRATAETDMVKKGRLFFYLGEFYNLTKKYTLAEKCYVQVMSIENPAFFEYRFAKKAMDEFNSSNGK”, the protein production result was “failed”.
Consider “MKITVIVPTYRRTKDLTRCLESLEKQSRPADEVLVVVRDTDVETWQFLETIAPHSLPLHTTTVRVPGVVAAMNAGLDIAQGDIIAFTDDDAAPHSNWLAQIETHFLAHEQIAGVGGRDWVYHGDRLEDGTCPVVGQVHWFGRVIGNHHIGIGKPREVDVLKGVNMSFRRSAVHGLRFDQRMLGTGAQVHFEVAFCLALKRAGWKLIYDPQIGVNHYPAQRFDEDQRQSFNHLAVTNAVHNETLALLEHLSPTQQLTFLLWATLVGTRDSMGLIQFLRFLPSDRALAGQKLLAAWYGRWRGWRTWQSSIRFAQIKN”, for which the protein production result is listed as “failed”.
With “MKIVGIYLAAGKSRRTGPGLHKLYLPTGNTLLGNKALHTSLSSNLSDVIVVSNQPSWLLHYTQVERVHILSCEKSCLGQSYSLHCGLEKAESMNADGVVVMLADQPFITVKLLNSLIDSYEHLPQLDYVAASFQGIPQPPILFSKGIFPSLKKLKGDQGARSIFFDKSFQGKITVYSDAKLFYDVNTIEDYNVIKNSLLLEHHHHHH” the entry was “failed”.
With “MKIVIAPDSYKESLSALEVATAIEQGFREIWPDADYLKLPLADGGEGTVEAMVEATAGRIVHVEVTGPLGHRVNAFYGLSGDARSAFIEMAAASGLEQVPPAQRDPLKTTSWGTGELIRHALDAGVEHIIIGIGGSATNDGGAGMVQALGARLRDAQGNDIAQGGIGLETLASIDISGLDKRLSACHIEVACDVTNPLTGKEGASAVFGPQKGATPEMIERLDTALTRYAHLIARDLHVDVLDLAGGGAAGGMGAALYAFCGAQLRRGIEIVTDALHLEACLADADLVITGEGRIDSQTIHGKVPIGVANIAKRYNKPVIGIAGSLTADVSVVHEHGLDAVFSVIYTICTLEDALKNASENVRMTARNVAATLKAGQQLR” the entry was “not failed”; with “MKIVIIGGFLGGGKTTVLNHLLAESLKESLKPAVIMNEFGKMSVDGALVSEDIPLSELTEGCICCAMKADVSEQLHQLYLKEQPDIVFIECSGIAEPVSVLDACLTPILAPFTTITHMIGVIDASMYKHIKSFPKDIQGLFYEQLAYCSVLFVNKIDSADVETTSKLLKDLEVINPEADIQVGMHGSVTLPISVRQMTATSDNKHESLHKTINHQFVQSPVTCTKAEFIKRLACLPSHIYRLKGFMTFEDTTHTYLIQFTQGQYELTPVAFSKKVPEYLVLIGKGISKEDYQCLEQLEHHHHHH”, “failed”; with “MKKASEYYYYLGDICWRKEKTDSAKYYFMEGIKTDETYAMNYVGIGIITMKSNATEGQRSFDKALQMTSQKNSQVLNAIGEYYILEADKAELPKGIALLKKSTEIDAKNAMSWILLGDAYGKQAEGSKQAESYGKAANLFHSVPLLKMKYGKMYAAARNKDLSIKYYNEGLAADPTYGPIYRELGDLYNRFRQYDLAIQNYKKYLTYIDSNDDVEFRYADFLFKNNNYAEAIEVFNKLEAKKYNSPYIYNRRAVCYYELEHHHHHH”, “failed”.
With “MKKESLFRYAREHFNSEPEYLWSNLPDYAVLRHDHGDKWFGIVMSVRGSTLGLKTDDKVDILDVKVRPEYIGSLRQKEGVLPAYHMNKEHWISVILSGPLSTKEIHELLADSHELTSGLEHHHHHH” the entry was “not failed”.
Turning to “MKKFAIMGLGTFGVRMLDELIKIGAEVIIIEQNKDLIEMYKSKASSAIVLEEISELSVRKILPSKVDTVIVDFGRKVELSVISTTILKNLGIANIVVRAQSDEHGRLLKTVGATRIIYPDSEAAKRTTPILAADLLLKFMPISKNLALAEVGVEARYVGKSLAESNIRKDMGVNIIARRKKESEDFIFMDDPEYKFEEDDVLLVVASEEHIYNFSGGKISLKNNLKKDGEIKPSIFKNLFSSKKV”, the protein production result is reported as “failed”.
The value for “MKKFGLGVYLLLLGILGGSLIILGAIVAPIVFKASSVLPELHLTPFESGKLMAQIFVRFNYVLGAIGFVVLLYEIISFIYYKRSLVYLILGVAIGALCLLFVFYYTPYILNAQKAGEAALQSAEFARSHAQSEWLFKELFVLVCALFFWRLLGKNVL” was “failed”.
On to “MKKFIILLSLLILLPLTAASKPLIPIMKTLFTDVTGTVPDAEEIAHKAELFRQQTGIAPFIVVLPDINNEASLRQNGKAMLAHASSSLSDVKGSVLLLFTTREPRLIMITNGQVESGLDDKHLGLLIENHTLAYLNADLWYQGINNALAVLQAQILKQSTPPLTYYPHPGQQHENAPPGSTNTLGFIAWAATFILFSRIFYYTTRFIYALKFAVAMTIANMGYQALCLYIDNSFAITRISPLWAGLIGVCTFIAALLLTSKR”, for which the protein production result is recorded as “failed”.
With “MKKFLAIITLCLLFFSFTIGCERASLNRIGKDVYYMQIKGEGTIEKVDGRNLRNYTLPAYDEDGVKKQITFRSTKKENDHKLNKYAFLRLYVDQDDNSKNEISSIEVKSYEEIQKADLPEKVKDKFTIKLEHHHHHH” the entry was “not failed”; with “MKKFVTRRLGRKKRRDTEIVLPTKDDDCREEHGSEVSCMEDVEEMLQELSMKGEFVFGSFWRQGDSAANDFDFGNSQYEIANYKDHRSLSLLITQDVLLER”, “failed”; with “MKKGFVSIIIPSYNEASNIKLIYESLRNEFQSIDYDYEIYYINDGSTDRTLEEIKKLAEKSEHVKYISFSRNFGKEAAILAGFQHARGDAVVVMDADLQHPTYLLHDFIKGYEEGYDQVVAQRNRKGDNPVRSYLSSLYYRFINNAVEVDLRDGVGDFRLLSRKAVNAMLKLSEGNRFSKGLFCWIGFDQKIVYYENVERKNGKSKWSFRHLLNYGIDGIVSFNNRPLRMCFYAGIFILFLSLIYIAATFIRILKYGVIVPGYFTIISAVLFLGGVQLLSLGIIGEYIGRIYYETKKRPHYLIQEANIAHGETHENRES”, “failed”.
The value for “MKKGRGYVYKLEYHLIWATKYRHQVLVDEVADGLKDILRDIATQNGLELVALEVMPDYVHLLLGATPQHVIPDFVKALKGASARRMFSAFPHLKQPHWGGNLWNPSYCVLTVSEHTRAQIQQYIENQHAAE” was “not failed”; that for “MKKIAFGCDHVGFILKHEIVAHLVERGVEVIDKGTWSSERTDYPHYASQVALAVAGGEVDGGILICGTGVGISIAANKFAGIRAVVCSEPYSAQLSRQHNDTNVLAFGSRVVGLELAKMIVDAWLGAQYEGGRHQQRVEAITAIEQRRN” was “not failed”; that for “MKKIAIFGSAFNPPSLGHKSVIESLSHFDLVLLEPSIAHAWGKNMLDYPIRCKLVDAFIKDMGLSNVQRSDLEQALYQPGQSVTTYALLEKIQEIYPTADITFVIGPDNFFKFAKFYKAEEITERWTVMACPEKVKIRSTDIRNALIEGKDISTYTTPTVSELLLNEGLYR” was “not failed”.
With “MKKIAVFADVQNLYYTVRQAYGCHFNYAALWADISKRGEIVHAFAYAIDRGDSKQQQFQQILRNLGFTVRLKPYIQRSDGSAKGEWDVGITIDIMDFAPQVDEVVLASGDGDFDMLLDRVISKHGVEAVAYGVPGLTANSLIRAASRYVPIEGALLLK” the entry was “not failed”; with “MKKIAVTYGEEKYSYADIIKYVNYYSEFLDISKGDRVALMMENRPESIFSFFSIWAKKGIALSLDAGYTVEQLAFVLNDSKPKYIFVSNKIKEVVEKANEQVGNIVKIMVVDEITLPTDYVIKQEEYENDSNEDLAVIVYTSGTTGNPKGVMITYELEHHHHHH”, “not failed”; with “MKKILCAVLLLFTGASWANSDDLETSGDVVHLLLPATALGATLFYEEGHEGSWQLLKAAVSSRVIVEGLKLGVNKDRPDGSGDDSFPSGHTSDSFMAATFIQQRYGWQYGLPAYLAASYVGYTRVESDKHYVEDVLAGAAIGMLAGWYFTEPYKGITVTPLAHNGVYGLYISGQF”, “failed”.
As for “MKKKLVIILSIICIIAGGYFTMEYLKHKEKEEFFWKTQETRVEKYIHYNVKDVKSITFIEHKISPMGIPSIEGYINDDKDLWFDASISTTENFEDKFSRSGELGKLIKDPEKSVSEIEKEEKEKKKELEHHHHHH”, the protein production entry is given as “not failed”.
